From publication PMC9482650, “Quantitative fragmentomics allow affinity mapping of interactomes” (Nature Communications, 2022)

T1: RADIL, Q96JH8
T1 sequence (Q96JH8 971-1071, limits assumed, looked up): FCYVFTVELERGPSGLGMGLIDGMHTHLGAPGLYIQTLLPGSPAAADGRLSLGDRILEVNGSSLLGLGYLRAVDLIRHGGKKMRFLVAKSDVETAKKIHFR

T2: GRIP1_2, Q9Y3R0
T2 sequence (Q9Y3R0 145-248, limits assumed, looked up): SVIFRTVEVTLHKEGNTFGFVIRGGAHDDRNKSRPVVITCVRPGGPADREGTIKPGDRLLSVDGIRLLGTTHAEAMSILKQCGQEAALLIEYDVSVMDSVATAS

T3: DLG3_2, Q92796
T3 sequence (Q92796 221-321, limits assumed, looked up): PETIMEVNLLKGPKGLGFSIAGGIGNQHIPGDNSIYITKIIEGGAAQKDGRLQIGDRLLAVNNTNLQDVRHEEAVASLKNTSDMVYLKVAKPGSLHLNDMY

T4: APBA1_2, Q02410
T4 sequence (Q02410 742-832, limits assumed, looked up): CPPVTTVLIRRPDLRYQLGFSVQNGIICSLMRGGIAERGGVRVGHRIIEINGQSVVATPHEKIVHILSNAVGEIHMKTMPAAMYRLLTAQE

T5: APBA3_1, O96018
T5 sequence (O96018 389-490, limits assumed, looked up): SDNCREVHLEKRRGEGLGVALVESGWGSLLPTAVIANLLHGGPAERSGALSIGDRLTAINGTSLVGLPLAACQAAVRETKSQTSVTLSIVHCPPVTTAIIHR

T6: MPP2, Q14168
T6 sequence (Q14168 180-250, limits assumed, looked up): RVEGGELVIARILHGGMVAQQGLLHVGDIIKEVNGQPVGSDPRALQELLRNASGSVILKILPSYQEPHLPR

T7: LNX2_2, Q8N448
T7 sequence (Q8N448 334-432, limits assumed, looked up): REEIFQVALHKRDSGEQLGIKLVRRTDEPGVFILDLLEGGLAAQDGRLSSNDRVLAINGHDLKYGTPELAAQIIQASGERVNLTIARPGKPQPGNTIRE

T8: APBA1_1, Q02410
T8 sequence (Q02410 651-752, limits assumed, looked up): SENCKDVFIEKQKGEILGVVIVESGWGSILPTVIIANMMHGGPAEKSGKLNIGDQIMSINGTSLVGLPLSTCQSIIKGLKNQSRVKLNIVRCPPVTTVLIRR

T9: MPDZ_5, O75970
T9 sequence (O75970 695-796, limits assumed, looked up): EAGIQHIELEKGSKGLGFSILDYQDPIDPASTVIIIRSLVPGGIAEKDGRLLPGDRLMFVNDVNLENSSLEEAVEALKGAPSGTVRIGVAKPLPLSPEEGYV

T10: TX1BP3, O14907
T10 sequence (O14907 10-122, limits assumed, looked up): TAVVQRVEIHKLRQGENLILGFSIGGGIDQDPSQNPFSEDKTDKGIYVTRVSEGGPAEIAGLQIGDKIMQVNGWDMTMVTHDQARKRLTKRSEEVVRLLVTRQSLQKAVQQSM

T11: SNTB1, Q13884
T11 sequence (Q13884 107-205, limits assumed, looked up): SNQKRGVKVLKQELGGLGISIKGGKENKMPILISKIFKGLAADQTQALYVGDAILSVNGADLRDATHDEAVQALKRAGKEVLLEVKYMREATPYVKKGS

T12: DLG3_1, Q92796
T12 sequence (Q92796 125-227, limits assumed, looked up): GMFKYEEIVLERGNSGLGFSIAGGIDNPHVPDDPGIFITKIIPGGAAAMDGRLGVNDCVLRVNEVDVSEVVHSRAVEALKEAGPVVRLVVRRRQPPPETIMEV


Experiments:
Assay in all cases: holdup assay
Design in all cases: key: below the threshold = too weak to quantify, mostly under pKd 3.1 to 4
Settings in all cases: plain residues with an end cap or a label only (N-terminal biotin on a linker: ado-ado)
CASK, O14936 = biological target: CASK, O14936
DLG4_3, P78352 = biological target: DLG4_3, P78352
ARHGEF12, Q9NZN5-2 = biological target: ARHGEF12, Q9NZN5-2
RADIL, Q96JH8 = biological target: T1, RADIL, Q96JH8
DLG2_2, Q15700 = biological target: DLG2_2, Q15700
DLG1_2, Q12959 = biological target: DLG1_2, Q12959
Inadl_10, Q8NI35 = biological target: Inadl_10, Q8NI35
GRIP1_2, Q9Y3R0 = biological target: T2, GRIP1_2, Q9Y3R0
DLG3_2, Q92796 = biological target: T3, DLG3_2, Q92796
MAGI2_4, Q86UL8 = biological target: MAGI2_4, Q86UL8
APBA1_2, Q02410 = biological target: T4, APBA1_2, Q02410
APBA3_1, O96018 = biological target: T5, APBA3_1, O96018
MPP2, Q14168 = biological target: T6, MPP2, Q14168
LNX2_2, Q8N448 = biological target: T7, LNX2_2, Q8N448
APBA1_1, Q02410 = biological target: T8, APBA1_1, Q02410
MPDZ_5, O75970 = biological target: T9, MPDZ_5, O75970
TX1BP3, O14907 = biological target: T10, TX1BP3, O14907
SNTB1, Q13884 = biological target: T11, SNTB1, Q13884
MAGI3_2, Q5TCQ9 = biological target: MAGI3_2, Q5TCQ9
TJP1_2, Q07157 = biological target: TJP1_2, Q07157
TJP2_1, Q9UDY2 = biological target: TJP2_1, Q9UDY2
PDZRN4_1, Q6ZMN7 = biological target: PDZRN4_1, Q6ZMN7
PICK1, Q9NRD5 = biological target: PICK1, Q9NRD5
DLG3_1, Q92796 = biological target: T12, DLG3_1, Q92796
LNX1_2, Q8TBB1 = biological target: LNX1_2, Q8TBB1
LAP2, Q96RT1 = biological target: LAP2, Q96RT1
LAP2, Q96RT1, sequence (Q96RT1 other isoform, or with tags, fused parts or gaps): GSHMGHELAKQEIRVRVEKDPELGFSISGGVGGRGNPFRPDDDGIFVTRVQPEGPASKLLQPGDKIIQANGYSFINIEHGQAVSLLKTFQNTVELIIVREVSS

PDZRN4_1, Q6ZMN7, sequence (Q6ZMN7 213-318): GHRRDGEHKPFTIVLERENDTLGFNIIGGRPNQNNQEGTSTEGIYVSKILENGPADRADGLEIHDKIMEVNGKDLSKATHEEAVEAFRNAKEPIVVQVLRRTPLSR
TJP2_1, Q9UDY2, sequence (Q9UDY2 24-128): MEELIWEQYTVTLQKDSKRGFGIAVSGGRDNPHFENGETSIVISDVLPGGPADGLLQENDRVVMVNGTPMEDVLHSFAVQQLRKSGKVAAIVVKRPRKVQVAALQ
TJP1_2, Q07157, sequence (Q07157 181-274): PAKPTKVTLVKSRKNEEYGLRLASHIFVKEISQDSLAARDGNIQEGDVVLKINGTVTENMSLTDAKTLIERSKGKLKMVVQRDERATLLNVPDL
Inadl_10, Q8NI35, sequence (Q8NI35 1673-1763): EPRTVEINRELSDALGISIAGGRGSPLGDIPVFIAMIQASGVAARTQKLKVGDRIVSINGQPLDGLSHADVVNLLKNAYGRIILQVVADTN
MAGI2_4, Q86UL8, sequence (Q86UL8 772-865): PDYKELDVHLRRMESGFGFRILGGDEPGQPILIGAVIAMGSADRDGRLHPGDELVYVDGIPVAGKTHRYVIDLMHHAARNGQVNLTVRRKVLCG
DLG4_3, P78352, sequence (P78352 306-403): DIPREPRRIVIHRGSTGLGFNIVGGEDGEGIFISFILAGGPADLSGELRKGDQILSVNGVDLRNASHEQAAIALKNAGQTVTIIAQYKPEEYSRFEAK
DLG1_2, Q12959, sequence (Q12959 314-412): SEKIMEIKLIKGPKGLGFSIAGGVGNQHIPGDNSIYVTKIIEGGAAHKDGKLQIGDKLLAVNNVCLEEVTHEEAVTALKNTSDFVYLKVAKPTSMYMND
LNX1_2, Q8TBB1, sequence (Q8TBB1 371-470): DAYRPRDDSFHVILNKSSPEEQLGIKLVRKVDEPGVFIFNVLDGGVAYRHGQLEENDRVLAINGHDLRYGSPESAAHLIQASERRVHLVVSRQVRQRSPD
MAGI3_2, Q5TCQ9, sequence (Q5TCQ9 398-503): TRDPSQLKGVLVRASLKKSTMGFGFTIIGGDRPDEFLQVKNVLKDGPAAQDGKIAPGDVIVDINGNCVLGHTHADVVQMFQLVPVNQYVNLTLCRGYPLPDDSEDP
ARHGEF12, Q9NZN5-2, sequence (Q9NZN5 other isoform, or with tags, fused parts or gaps): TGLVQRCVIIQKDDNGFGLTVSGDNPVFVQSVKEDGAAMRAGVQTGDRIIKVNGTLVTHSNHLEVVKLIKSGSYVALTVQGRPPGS
CASK, O14936, sequence (O14936 487-570): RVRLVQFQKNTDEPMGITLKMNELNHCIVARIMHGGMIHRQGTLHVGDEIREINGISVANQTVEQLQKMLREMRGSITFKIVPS
DLG2_2, Q15700, sequence (Q15700 189-283): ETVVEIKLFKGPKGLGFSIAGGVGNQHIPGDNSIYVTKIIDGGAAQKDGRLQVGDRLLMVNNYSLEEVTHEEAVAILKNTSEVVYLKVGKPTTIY
PICK1, Q9NRD5, sequence (Q9NRD5 17-115): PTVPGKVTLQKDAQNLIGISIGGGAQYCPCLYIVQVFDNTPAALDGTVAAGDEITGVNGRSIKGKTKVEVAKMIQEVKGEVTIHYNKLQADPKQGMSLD

Binder | pKd (CASK, O14936) | pKd (DLG4_3, P78352) | pKd (ARHGEF12, Q9NZN5-2) | pKd (RADIL, Q96JH8) | pKd (DLG2_2, Q15700) | pKd (DLG1_2, Q12959) | pKd (Inadl_10, Q8NI35) | pKd (GRIP1_2, Q9Y3R0) | pKd (DLG3_2, Q92796) | pKd (MAGI2_4, Q86UL8) | pKd (APBA1_2, Q02410) | pKd (APBA3_1, O96018) | pKd (MPP2, Q14168) | pKd (LNX2_2, Q8N448) | pKd (APBA1_1, Q02410) | pKd (MPDZ_5, O75970) | pKd (TX1BP3, O14907) | pKd (SNTB1, Q13884) | pKd (MAGI3_2, Q5TCQ9) | pKd (TJP1_2, Q07157) | also measured
GNDPDRGTSI [GRID2, O43424] | below the threshold | below the threshold | below the threshold | below the threshold | below the threshold | below the threshold | below the threshold | below the threshold | 4.25 | below the threshold | 3.65 | below the threshold | below the threshold | below the threshold | below the threshold | below the threshold | below the threshold | below the threshold | below the threshold | below the threshold | pKd (TJP2_1, Q9UDY2): below the threshold; pKd (PDZRN4_1, Q6ZMN7): 3.49; pKd (PICK1, Q9NRD5): below the threshold; pKd (DLG3_1, Q92796): below the threshold; pKd (LNX1_2, Q8TBB1): below the threshold; pKd (LAP2, Q96RT1): below the threshold
SGDGKTSVWI [GJC1, P36383] | below the threshold | below the threshold | 3.61 | 4.13 | below the threshold | below the threshold | 3.54 | below the threshold | 4.16 | below the threshold | 4.44 | below the threshold | below the threshold | 5.42 | 3.69 | below the threshold | below the threshold | below the threshold | below the threshold | 5 | pKd (TJP2_1, Q9UDY2): 4.82; pKd (PDZRN4_1, Q6ZMN7): below the threshold; pKd (PICK1, Q9NRD5): below the threshold; pKd (DLG3_1, Q92796): below the threshold; pKd (LNX1_2, Q8TBB1): 4.03; pKd (LAP2, Q96RT1): 3.81

Now from value to binder, other results behind:

pKd (CASK, O14936) | pKd (DLG4_3, P78352) | pKd (ARHGEF12, Q9NZN5-2) | pKd (RADIL, Q96JH8) | pKd (DLG2_2, Q15700) | pKd (DLG1_2, Q12959) | pKd (Inadl_10, Q8NI35) | pKd (GRIP1_2, Q9Y3R0) | pKd (DLG3_2, Q92796) | pKd (MAGI2_4, Q86UL8) | pKd (APBA1_2, Q02410) | pKd (APBA3_1, O96018) | pKd (MPP2, Q14168) | pKd (LNX2_2, Q8N448) | pKd (APBA1_1, Q02410) | pKd (MPDZ_5, O75970) | pKd (TX1BP3, O14907) | pKd (SNTB1, Q13884) | pKd (MAGI3_2, Q5TCQ9) | pKd (TJP1_2, Q07157) | Binder | also measured
below the threshold | below the threshold | below the threshold | 4.21 | below the threshold | 3.81 | below the threshold | below the threshold | 4.2 | below the threshold | below the threshold | below the threshold | below the threshold | 4.7 | below the threshold | below the threshold | below the threshold | below the threshold | below the threshold | below the threshold | DFKHTKSFII [JAM2, P57087] | pKd (TJP2_1, Q9UDY2): below the threshold; pKd (PDZRN4_1, Q6ZMN7): below the threshold; pKd (PICK1, Q9NRD5): below the threshold; pKd (DLG3_1, Q92796): below the threshold; pKd (LNX1_2, Q8TBB1): below the threshold; pKd (LAP2, Q96RT1): below the threshold
below the threshold | below the threshold | below the threshold | below the threshold | below the threshold | below the threshold | below the threshold | below the threshold | below the threshold | below the threshold | 3.54 | below the threshold | below the threshold | below the threshold | below the threshold | below the threshold | below the threshold | below the threshold | below the threshold | 3.5 | SQPLLVHDDV [KIT, P10721] | pKd (TJP2_1, Q9UDY2): below the threshold; pKd (PDZRN4_1, Q6ZMN7): below the threshold; pKd (PICK1, Q9NRD5): 4.06; pKd (DLG3_1, Q92796): below the threshold; pKd (LNX1_2, Q8TBB1): below the threshold; pKd (LAP2, Q96RT1): 3.56
below the threshold | below the threshold | below the threshold | 4.62 | below the threshold | below the threshold | below the threshold | below the threshold | 4.2 | 4.3 | 3.5 | below the threshold | below the threshold | 5.22 | below the threshold | below the threshold | below the threshold | below the threshold | below the threshold | 4.01 | EFKQTSSFLV [JAM1, Q9Y624] | pKd (TJP2_1, Q9UDY2): below the threshold; pKd (PDZRN4_1, Q6ZMN7): below the threshold; pKd (PICK1, Q9NRD5): 4.27; pKd (DLG3_1, Q92796): below the threshold; pKd (LNX1_2, Q8TBB1): 4.26; pKd (LAP2, Q96RT1): below the threshold
